Test results: article PMC12834908

How the values were obtained:
[1] = molecular target: eukaryotic elongation factor-2 kinase, wild type, phosphorylated at T348 (eEF-2K^p) (UniProt O00418)
[2] = molecular target: S500D-eEF-2K, phosphorylated at T348 (S500D-eEF-2K^p) (UniProt O00418)

- Ca^2+/CaM-dependent kinase activity kobs (2 μM CaM, 450 μM PepS peptide substrate) [1]: 40 s⁻¹
- Ca^2+/CaM-dependent kinase activity kobs (2 μM CaM, 450 μM PepS peptide substrate) [2]: 33 s⁻¹
Substance: calmodulin (CaM) (from UniProt P0DP23 1-149) (natural protein)
